From PMC12140320, “MeCP2 Lactylation Protects against Ischemic Brain Injury by Transcriptionally Regulating Neuronal Apoptosis” come the findings set out here.

This data set has as its target MeCP2 WT (human) (Homo sapiens, UniProt P51608 1-486). As to the kind of experiment: EMSA; 50-100 nM protein; EMSA: 10 mM HEPES pH 7.6, 50 mM KCl, 1 mM EDTA, 0.05% Triton X-100, 5% glycerol, 1 mM DTT; 50-100 nM protein, 2 nM biotin probe; room temperature 30 min; 6% native PAGE, 0.5x TBE, 4 C. Conditions: protein: recombinant; (Ni resin); label: biotin; blunt. Background: A gel shift assay detects complexes by their altered migration in electrophoresis.

MeCP2 WT (human), sequence (P51608 whole entry): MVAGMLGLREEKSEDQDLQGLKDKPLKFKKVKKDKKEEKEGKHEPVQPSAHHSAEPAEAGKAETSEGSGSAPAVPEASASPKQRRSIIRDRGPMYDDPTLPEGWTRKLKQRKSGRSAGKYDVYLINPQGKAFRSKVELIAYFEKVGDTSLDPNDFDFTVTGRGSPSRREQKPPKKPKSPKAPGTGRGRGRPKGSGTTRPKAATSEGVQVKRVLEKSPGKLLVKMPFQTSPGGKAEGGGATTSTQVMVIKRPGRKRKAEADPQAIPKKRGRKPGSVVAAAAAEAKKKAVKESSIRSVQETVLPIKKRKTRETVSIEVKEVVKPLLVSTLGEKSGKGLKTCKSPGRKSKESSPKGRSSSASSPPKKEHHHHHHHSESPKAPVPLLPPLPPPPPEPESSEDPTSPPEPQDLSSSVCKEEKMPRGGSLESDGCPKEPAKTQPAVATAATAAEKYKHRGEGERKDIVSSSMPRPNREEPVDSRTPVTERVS

B1: human-Pdcd4 mCpG probe (dsDNA)
DNA 1: GCGCATGCGCCCTCCCGCGCCCCTCCCC
DNA 2: GGGGAGGGGCGCGGGAGGGCGCATGCGC
modifications: 5-methyl-dC at CpG, both strands; printed '(5-Methyl dC)CG' read as mCG to match the unmethylated probe
For B1, the binding result is on record as “binds”.

B2: human-Pla2g6 mCpG probe (dsDNA)
DNA 1: GCGCATGCGCCCTCCCGCGCCCCTCCCC
DNA 2: GGGGAGGGGCGCGGGAGGGCGCATGCGC
modifications: 5-methyl-dC at CpG, both strands; printed sequence identical to human-Pdcd4 probe (possible error in paper)
For the molecule B2, the binding result is on record as “binds”.
